# Laboratory results: paper doi:10.1101/2024.06.27.601040 (bioRxiv, 2024)
# B1: MINT domain (residues 1562-1724 of human PARP4), wild type (domain or fragment)
# chain: VCIQHWQDAVPWTELLSLQTEDGFWKLTPELGLILNLNTNGLHSFLKQKGIQSLGVKGRECLLDLIATMLVLQFIRTRLEKEGIVFKSLMKMDDASISRNIPWAFEAIKQASEWVRRTEGQYPSICPRLELGNDWDSATKQLLGLQPISTVSPLHRVLHYSQG
# Molecular target: MVP3-5 (residues 102-274 of human MVP), wild type (human, UniProt Q14764 102-274)
# Experiment: SEC
# MVP3-5 (residues 102-274 of human MVP), wild type, sequence (Q14764 102-274): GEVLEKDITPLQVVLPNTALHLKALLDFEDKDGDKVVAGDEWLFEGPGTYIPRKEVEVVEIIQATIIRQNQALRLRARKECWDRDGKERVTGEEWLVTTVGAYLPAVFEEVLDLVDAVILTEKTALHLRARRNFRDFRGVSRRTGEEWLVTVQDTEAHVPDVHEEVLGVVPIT
binder,measurement,value
B1,binding result,binds
